This is an account of results in patent US20250161474A1 (SICHUAN KELUN BIOTECH BIOPHARMACEUTICAL, published 2025).

As usually defined, the EC50 is the midpoint of the concentration-response curve. Low readings indicate higher potency in that assay, high ones lower potency in that assay.

B1: BsAb 10B (bispecific antibody, human IgG1, kappa)
light: not shown
heavy: not shown
chain: DIQMTQSPSSLSASVGDRVTITCKSSQSLLYTSSQKNYLAWYQQKPGKAPKLLIYWASTRESGVPSRFSGSGSGTDFTLTISSLQPEDFATYYCQQYYAYPWTFGQGTKVEIKGGGGSGGGGSGGGGSEVQLVESGGGLVQPGGSLRLSCAASGYTFTSYWLHWVRQAPGKGLEWVGMIDPSNSDTRFNPNFKDRFTISADTSKNTAYLQMNSLRAEDTAVYYCATYRSYVTPLDYWGQGTLVTVSSGGGGDKTHTCPPCPAPELLGGPSVFLFPPKPKDTLMISRTPEVTCVVVDVSHEDPEVKFNWYVDGVEVHNAKTKPREEQYNSTYRVVSVLTVLHQDWLNGKEYKCKVSNKALPAPIEKTISKAKGQPREPQVCTLPPSREEMTKNQVSLSCAVKGFYPSDIAVEWESNGQPENNYKTTPPVLDSDGSFFLVSKLTVDKSRWQQGNVFSCSVMHEALHNHYTQKSLSLSPGK
notes: Fab-scFv-Fc (KIH) format; anti-EGFR Fab, anti-c-MET scFv; also called bispecific antibody 10B
B2: ADC 38B-A-14 (bispecific antibody, human IgG1, kappa, L234A L235A)
light: not shown
heavy: not shown
chain: B1 chain with L265A, L266A, P360A, E387D, M389L
modifications: linker-payload A-14 on reduced Cys sulfhydryls (sites not given); DAR of the whole ADC approximately 6
B3: ADC 49B-A-05 (bispecific antibody, human IgG1, kappa, L234A L235A)
light: DIQMTQSPSSLSASVGDRVTITCKSSQSLLYTSSQKNYLAWYQQKPGKAPKLLIYWASTRESGVPSRFSGSGSGTDFTLTISSLQPEDFATYYCQQYYAYPWTFGQGTKVEIKRTVAAPSVFIFPPSDEQLKSGTASVVCLLNNFYPREAKVQWKVDNALQSGNSQESVTEQDSKDSTYSLSSTLTLSKADYEKHKVYACEVTHQGLSSPVTKSFNRGEC
heavy: not shown
chain: AIQLTQSPSSLSASVGDRVTITCRASQDISSALVWYQQKPGKAPKLLIYDASSLESGVPSRFSGSESGTDFTLTISSLQPEDFATYYCQQFNSYPLTFGGGTKVEIKGGGGSGGGGSGGGGSQVQLVESGGGVVQPGRSLRLSCAASGFTFSTYGMHWVRQAPGKGLEWVAVIWDDGSYKYYGDSVKGRFTISRDNSKNTLYLQMNSLRAEDTAVYYCARDGITMVRGVMKDYFDYWGQGTLVTVSSGGGGDKTHTCPPCPAPEAAGGPSVFLFPPKPKDTLMISRTPEVTCVVVDVSHEDPEVKFNWYVDGVEVHNAKTKPREEQYNSTYRVVSVLTVLHQDWLNGKEYKCKVSNKALAAPIEKTISKAKGQPREPQVCTLPPSRDELTKNQVSLSCAVKGFYPSDIAVEWESNGQPENNYKTTPPVLDSDGSFFLVSKLTVDKSRWQQGNVFSCSVMHEALHNHYTQKSLSLSPGK
modifications: linker-payload A-05 on reduced Cys sulfhydryls (sites not given); DAR of the whole ADC approximately 6
B4: BsAb 49B (bispecific antibody, human IgG1, kappa, L234A L235A)
light: B3 light
heavy: not shown
chain: B3 chain
notes: Fab-scFv-Fc (KIH) format; anti-c-MET Fab, anti-EGFR scFv; also called BsB 49B; bispecific antibody 49B
B5: ADC 49B-A-14 (bispecific antibody, human IgG1, kappa, L234A L235A)
light: B3 light
heavy: not shown
chain: B3 chain
modifications: linker-payload A-14 on reduced Cys sulfhydryls (sites not given); DAR of the whole ADC approximately 6
B6: BsAb 07B (bispecific antibody, human IgG1, kappa)
light: B3 light
heavy: not shown
chain: B3 chain with A265L, A266L, A360P, D387E, L389M
notes: Fab-scFv-Fc (KIH) format; anti-c-MET Fab, anti-EGFR scFv; expressed in CHO-K1; also called bispecific antibody 07B
B7: ADC 07B-A-05 (bispecific antibody, human IgG1, kappa)
light: B3 light
heavy: not shown
chain: B3 chain with A265L, A266L, A360P, D387E, L389M
modifications: linker-payload A-05 on reduced Cys sulfhydryls (sites not given); DAR of the whole ADC approximately 6
B8: BsAb 38B (bispecific antibody, human IgG1, kappa, L234A L235A)
light: not shown
heavy: not shown
chain: B1 chain with L265A, L266A, P360A, E387D, M389L
notes: Fab-scFv-Fc (KIH) format; anti-EGFR Fab, anti-c-MET scFv; also called bispecific antibody 38B
B9: ADC 56B-A-14 (bispecific antibody)
chain 1: not shown
chain 2: B1 chain with L265A, L266A, P360A, E387D, M389L
modifications: linker-payload A-14 on reduced Cys sulfhydryls (sites not given); DAR of the whole ADC approximately 4
B10: ADC 55B-A-14 (bispecific antibody, human IgG1, kappa, L234A L235A)
light: B3 light
heavy: not shown
chain 1: AIQLTQSPSSLSASVGDRVTITCRASQDISSALVWYQQKPGKAPKLLIYDASSLESGVPSRFSGSESGTDFTLTISSLQPEDFATYYCQQFNSYPLTFGGGTKVEIKSSASTKGPSVFPLAPSSKSTSGGTAALGCLVKDYFPEPVTVSWNSGALTSGVHTFPAVLQSSGLYSLSSVVTVPSSSLGTQTYICNVNHKPSNTKVDKKVEPKSC
chain 2: QVQLVESGGGVVQPGRSLRLSCAASGFTFSTYGMHWVRQAPGKGLEWVAVIWDDGSYKYYGDSVKGRFTISRDNSKNTLYLQMNSLRAEDTAVYYCARDGITMVRGVMKDYFDYWGQGTLVTVSSASVAAPSVFIFPPSDEQLKSGTASVVCLLNNFYPREAKVQWKVDNALQSGNSQESVTEQDSKDSTYSLSSTLTLSKADYEKHKVYACEVTHQGLSSPVTKSFNRGECDKTHTCPPCPAPEAAGGPSVFLFPPKPKDTLMISRTPEVTCVVVDVSHEDPEVKFNWYVDGVEVHNAKTKPREEQYNSTYRVVSVLTVLHQDWLNGKEYKCKVSNKALAAPIEKTISKAKGQPREPQVCTLPPSRDELTKNQVSLSCAVKGFYPSDIAVEWESNGQPENNYKTTPPVLDSDGSFFLVSKLTVDKSRWQQGNVFSCSVMHEALHNHYTQKSLSLSPGK
modifications: linker-payload A-14 on reduced Cys sulfhydryls (sites not given); DAR of the whole ADC approximately 8

Changes are numbered by the printed parent chain.

T1 sequence (P08581 25-1390): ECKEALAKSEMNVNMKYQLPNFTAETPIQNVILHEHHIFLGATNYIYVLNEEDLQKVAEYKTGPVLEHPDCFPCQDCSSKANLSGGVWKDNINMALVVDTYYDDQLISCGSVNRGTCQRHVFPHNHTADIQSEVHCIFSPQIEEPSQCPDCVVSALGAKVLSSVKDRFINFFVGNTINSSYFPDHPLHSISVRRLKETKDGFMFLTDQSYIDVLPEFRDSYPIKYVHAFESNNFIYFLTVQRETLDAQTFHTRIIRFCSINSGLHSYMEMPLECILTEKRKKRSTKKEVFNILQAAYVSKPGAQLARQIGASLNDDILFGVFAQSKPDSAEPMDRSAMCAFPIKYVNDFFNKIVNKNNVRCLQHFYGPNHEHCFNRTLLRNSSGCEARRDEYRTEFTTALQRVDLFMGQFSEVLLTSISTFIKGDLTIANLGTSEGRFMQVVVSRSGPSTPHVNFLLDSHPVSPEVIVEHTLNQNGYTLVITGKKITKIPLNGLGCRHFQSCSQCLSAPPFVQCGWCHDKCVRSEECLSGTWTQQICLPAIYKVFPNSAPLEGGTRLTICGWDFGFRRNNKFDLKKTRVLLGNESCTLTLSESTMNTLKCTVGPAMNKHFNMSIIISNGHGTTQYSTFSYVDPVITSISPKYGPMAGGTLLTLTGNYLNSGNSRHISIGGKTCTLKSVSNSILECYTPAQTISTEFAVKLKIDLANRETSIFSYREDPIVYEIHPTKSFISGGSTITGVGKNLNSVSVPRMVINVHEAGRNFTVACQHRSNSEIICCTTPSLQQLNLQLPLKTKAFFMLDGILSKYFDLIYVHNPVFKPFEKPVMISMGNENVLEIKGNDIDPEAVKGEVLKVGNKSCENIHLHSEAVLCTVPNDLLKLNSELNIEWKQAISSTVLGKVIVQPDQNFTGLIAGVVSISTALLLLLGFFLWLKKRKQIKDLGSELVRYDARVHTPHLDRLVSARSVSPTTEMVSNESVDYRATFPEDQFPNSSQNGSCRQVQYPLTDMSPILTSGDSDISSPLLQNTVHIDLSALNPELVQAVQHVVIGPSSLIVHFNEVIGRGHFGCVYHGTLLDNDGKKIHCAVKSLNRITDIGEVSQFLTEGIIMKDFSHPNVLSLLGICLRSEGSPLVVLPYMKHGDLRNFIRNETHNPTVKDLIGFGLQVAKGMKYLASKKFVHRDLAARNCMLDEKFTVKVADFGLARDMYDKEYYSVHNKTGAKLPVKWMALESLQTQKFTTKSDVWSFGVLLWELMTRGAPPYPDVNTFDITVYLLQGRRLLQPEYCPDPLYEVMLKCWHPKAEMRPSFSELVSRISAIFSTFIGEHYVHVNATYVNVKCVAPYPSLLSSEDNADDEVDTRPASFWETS

The first assay has as its target T1, human c-MET (human, UniProt P08581 25-1390).
T1 construct: whole, on cells; also called tyrosine protein kinase Met; hepatocyte growth factor receptor
Description: flow cytometry on EBC-1 cells (highly express c-MET). An excerpt: (§1) A flow cytometer (Beckman, model Cytoflex) was used to detect the interaction between anti-human EGFR/c-MET bispecific antibodies and their conjugates and human gastric cancer cells MKN45 (Nanjing Cobioer Biosciences) and human gastric cancer cells overexpressing human EGFR MKN45-EGFR (Kelun-Biotech), human lung squamous cell carcinoma EBC-1 (Nanjing Cobioer Biosciences), human lung squamous cell carcinoma EBC-1-EGFR overexpressing human EGFR (Kelun-Biotech), human non-small cell lung cancer cell HCC827 (ATCC™), and human epidermal squamous cell carcinoma cell A431 (Nanjing Cobioer Biosciences). The protocol was as follows.
(§2) The adherent cells were digested with Trypsin-EDTA solution (0.25%) (Shanghai BasalMedia) and the cell density adjusted to 4.0×10⁶ per mL. The cells were washed twice with 1% BSA and resuspended in 1% BSA solution. Then 50 μL cell suspension was added to each well of a 96-well plate (the number of cells was 2×10⁵ per well). The antibody and its conjugate were diluted with 1% BSA (final concentration 10 µg/mL, 3-fold gradient dilution, a total of 11 concentration points). Then 50 μL of the diluted antibody and ADC were added to the wells of the 96-well plate and the plate was incubated at 4° C. for 60 minutes. The wells of the 96-well plate were then washed twice with 1% BSA, 50 μL of diluted secondary antibody was added to each well, and the 96-well plate was incubated at 4° C. for 30 minutes. Then the cells were washed twice with 1% BSA, and the cells were resuspended in 200 μL of 1% BSA and subjected to flow cytometry detection.
For orientation: A flow cytometer gives signals particle by particle.
Molecule B1 returned an EC50 of 1.51 nM. In other words, the single-digit nanomolar range.

B2: the midpoint of the response, the EC50, lay at 1.29 nM.

Consider B3, for which the response was half-maximal at 0.95 nM (EC50).

B4 returned an EC50 of 1.32 nM.

On to B5, for which the EC50 turned out to be 1.51 nM.

B6 yielded an EC50 of 1.46 nM.

As to B7, the EC50 was determined as 1.47 nM. This EC50 and that of the molecule before are within 1.5-fold of each other.

Another assay concerns the target T1, human c-MET. Description: flow cytometry on MKN45 cells (highly express c-MET).
Source text: as §1, §2
B1 yielded an EC50 of 1.1 nM.

In turn, B8 had an EC50 of 1.16 nM.

Consider B3, for which the EC50 stood at 1.58 nM.

B4 displayed an EC50 of 0.34 nM. Compared with the last molecule, the EC50 is about 4.6-fold lower.

Molecule B5 displayed an EC50 of 1.06 nM.

A further assay concerns the target T1, human c-MET. Description: cell-based or functional assay.
As to B9, the “IC50, in vitro cell killing (CCK8) on EBC-1 cells” value (shortened to “IC50 … on EBC-1 cells”) came out at 2.95 nM and the “IC50, in vitro cell killing (CCK8) on MKN45 cells” value (“IC50 … on MKN45 cells” below) came to 1.17 nM.

For the molecule B2, the “IC50 … on EBC-1 cells” value was 1.03 nM and the “IC50 … on MKN45 cells” value came to 0.3 nM.

Take B3: the “IC50 … on EBC-1 cells” value was determined as 1.08 nM and the “IC50 … on MKN45 cells” value turned out to be 0.68 nM.

On to B5, for which the “IC50 … on EBC-1 cells” value was determined as 2.93 nM and the “IC50 … on MKN45 cells” value was 0.57 nM.

As for B10, the “IC50 … on EBC-1 cells” value was 0.42 nM and the “IC50 … on MKN45 cells” value amounted to 0.4 nM.

As to B7, the “IC50 … on EBC-1 cells” value stood at 0.48 nM.
